The values below come from paper PMC3090473 (Methods (San Diego, Calif.), 2010).

The data set concerns the molecule itself. The data set is described as follows: AUC.

B1: Un-tagged Gal3 protein (natural protein, Saccharomyces cerevisiae, UniProt P13045 1-520, looked up)
chain: MNTNVPIFSSPVRDLPRSFEQKHLAVVDAFFQTYHVKPDFIARSPGRVNLIGEHIDYCDFSVLPLAIDVDMLCAVKILDEKNPSITLTNADPKFAQRKFDLPLDGSYMAIDPSVSEWSNYFKCGLHVAHSYLKKIAPERFNNTPLVGAQIFCQSDIPTGGGLSSAFTCAAALATIRANMGKNFDISKKDLTRITAVAEHYVGVNNGGMDQATSVYGEEDHALYVEFRPKLKATPFKFPQLKNHEISFVIANTLVKSNKFETAPTNYNLRVIEVTVAANALATRYSVALPSHKDNSNSERGNLRDFMDAYYARYENQAQPWNGDIGTGIERLLKMLQLVEESFSRKKSGFTVHEASTALNCSREEFTRDYLTTFPVRFQVLKLYQRAKHVYSESLRVLKALKMMTSATFHTDEDFFTDFGRLMNESQASCDKLYECSCIETNQICSIALANGSFGSRLTGAGWGGCTIHLVPSGANGNVEQVRKALIEKFYNVRYPDLTDEELKDAIIVSKPALGTCLYEQ
As to B1, the binding result is given as “binds”.

B2: Un-tagged Gal80 protein (natural protein, Saccharomyces cerevisiae, UniProt P04387 1-435, looked up)
chain: MDYNKRSSVSTVPNAAPIRVGFVGLNAAKGWAIKTHYPAILQLSSQFQITALYSPKIETSIATIQRLKLSNATAFPTLESFASSSTIDMIVIAIQVASHYEVVMPLLEFSKNNPNLKYLFVEWALACSLDQAESIYKAAAERGVQTIISLQGRKSPYILRAKELISQGYIGDINSIEIAGNGGWYGYERPVKSPKYIYEIGNGVDLVTTTFGHTIDILQYMTSSYFSRINAMVFNNIPEQELIDERGNRLGQRVPKTVPDHLLFQGTLLNGNVPVSCSFKGGKPTKKFTKNLVIDIHGTKGDLKLEGDAGFAEISNLVLYYSGTRANDFPLANGQQAPLDPGYDAGKEIMEVYHLRNYNAIVGNIHRLYQSISDFHFNTKKIPELPSQFVMQGFDFEGFPTLMDALILHRLIESVYKSNMMGSTLNVSNISHYSL
In the case of B2, the binding result is given as “binds”.
